For assay [1], the target named is mouse Hck SH3 domain with High Affinity RT loop (HART) (mouse) (UniProt P08103). In words: SPR. For orientation: Surface plasmon resonance follows binding to a sensor surface in real time, without labels.
In assay [2] the target is wild-type human Hck SH3 domain (human) (UniProt P08631). Nature of the assay: SPR.
The target in assay [3] is wild-type mouse Hck SH3 domain (mouse) (UniProt P08103). In words: SPR.
The target in assay [4] is mouse Hck SH3 domain with High Affinity RT loop (HART) (mouse) (UniProt P08103). In words: HDX-MS; SH3 (50 uM) and Nef-Consensus (117 uM) equilibrated at 4 C for at least 110 min in 20 mM Tris-HCl pH 8.3, 100 mM NaCl, 3 mM DTT; 15-fold dilution into D2O buffer; intact-protein MS; SH3 cooperative unfolding rate free and with Nef (slowdown factor).
The target of assay [5] is wild-type mouse Hck SH3 domain (mouse) (UniProt P08103). The assay is described as above.

As a reminder, the Kd is the equilibrium constant for the complex coming apart. One may read the koff as the first-order rate constant of dissociation. Low values mean slow dissociation, high ones fast dissociation. The term kon denotes the rate constant with which the complex forms. Low values mean slower complex formation, high ones faster complex formation.

Sequence of wild-type mouse Hck SH3 domain (mouse) (P08103 76-136): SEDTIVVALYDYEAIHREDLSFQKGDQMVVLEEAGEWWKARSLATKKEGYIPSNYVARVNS
Sequence of wild-type human Hck SH3 domain (human) (P08631 78-138): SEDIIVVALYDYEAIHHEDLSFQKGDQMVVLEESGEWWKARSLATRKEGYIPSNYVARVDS
Sequence of HIV-1 Nef-SF2, untagged (P03407 whole entry): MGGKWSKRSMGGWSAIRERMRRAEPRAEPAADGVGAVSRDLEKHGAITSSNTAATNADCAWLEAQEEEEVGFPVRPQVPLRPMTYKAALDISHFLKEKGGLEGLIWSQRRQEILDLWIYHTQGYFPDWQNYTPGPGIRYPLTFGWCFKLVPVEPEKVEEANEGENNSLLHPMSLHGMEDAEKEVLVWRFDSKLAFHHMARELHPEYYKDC

On to HIV-1 Nef-Consensus, untagged, for which the Kd in assay [1] stood at 20 nM; in assay [2], 120 nM; in assay [3] it was 80 nM. The koff turned out to be 0.0324 s⁻¹ in assay [1], 0.118 s⁻¹ in assay [2] and 0.0185 s⁻¹ in assay [3]. In addition, the kon stood at 1.57e+06 M⁻¹ s⁻¹ in assay [1], 1e+06 M⁻¹ s⁻¹ in assay [2] and 241000 M⁻¹ s⁻¹ in assay [3]. Moreover, the fold decrease in SH3 unfolding rate with Nef (slowdown factor) is 50 fold in assay [4] and 5.7 fold in assay [5].

In the case of “HIV-1 Nef-SF2, untagged (from UniProt P03407) (natural protein)”, in assay [1], the Kd came to 10 nM, the dissociation rate constant (koff) was 0.0143 s⁻¹ and the kon was 1.42e+06 M⁻¹ s⁻¹.

For the origin of these results see paper PMC3328272, “HIV-1 Nef interaction influences the ATP-binding site of the Src-family kinase, Hck” (BMC Chemical Biology, 2012).
